# Test results as given in publication PMC10132805 (Nature Communications, 2023).
# No end group written: not given here. *: point of attachment. FITC = O=C1OC2(c3ccc(O)cc3Oc3cc(O)ccc32)c2ccc(NC(=S)*)cc21
# T1: N-terminal domain of clathrin (human, UniProt Q00610 1-364)
# T1 construct: also called CLTC NTD; CLTC-NTD
# T1 sequence: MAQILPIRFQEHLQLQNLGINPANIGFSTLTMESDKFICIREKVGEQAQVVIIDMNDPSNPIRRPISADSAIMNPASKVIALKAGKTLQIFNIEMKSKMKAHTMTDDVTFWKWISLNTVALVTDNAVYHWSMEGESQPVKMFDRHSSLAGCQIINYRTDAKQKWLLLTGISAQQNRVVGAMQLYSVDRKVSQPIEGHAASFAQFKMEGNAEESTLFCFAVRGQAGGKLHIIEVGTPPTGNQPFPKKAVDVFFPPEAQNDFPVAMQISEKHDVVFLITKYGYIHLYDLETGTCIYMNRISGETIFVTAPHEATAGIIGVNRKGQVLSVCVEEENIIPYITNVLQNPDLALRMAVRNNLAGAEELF
# T2: GAE domain of ADP-ribosylation factor-binding protein GGA3 (GGA3 GAE) (human, UniProt Q9NZ52 594-715)
# T2 construct: also called GGA3 ear
# T2 sequence (looked up): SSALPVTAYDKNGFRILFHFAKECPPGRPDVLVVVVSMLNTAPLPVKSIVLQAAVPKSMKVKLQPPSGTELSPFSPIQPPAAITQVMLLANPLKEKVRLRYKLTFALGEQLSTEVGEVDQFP
# T3: Mu homology domain (MHD) of the AP-2 subunit mu (AP2M1 MHD) (human, UniProt Q96CW1 170-434)
# T3 sequence (looked up): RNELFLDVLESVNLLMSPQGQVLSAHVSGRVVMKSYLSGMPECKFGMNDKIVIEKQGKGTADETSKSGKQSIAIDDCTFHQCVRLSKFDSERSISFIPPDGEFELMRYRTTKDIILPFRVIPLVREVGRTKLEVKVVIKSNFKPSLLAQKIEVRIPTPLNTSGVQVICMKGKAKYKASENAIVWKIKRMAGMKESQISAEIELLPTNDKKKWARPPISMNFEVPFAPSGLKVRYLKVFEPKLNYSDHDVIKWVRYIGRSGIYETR
# B1: tumor susceptibility gene 101 protein UEV domain (TSG101 UEV) (domain or fragment)
# chain: AVSESQLKKMVSKYKYRDLTVRETVNVITLYKDLKPVLDSYVFNDGSSRELMNLTGTIPVPYRGNTYNIPICLWLLDTYPYNPPICFVKPTSSMTIKTGKHVDANGKIYLPYLHEWKHPQSDLLGLIQVMIVVFGDEPPVFSRP
# B2: C terminal domain of polyadenylate-binding protein 1 (PABP1 PABC) (domain or fragment)
# chain: QEPLTASMLASAPPQEQKQMLGERLFPLIQAMHPTLAGKITGMLLEIDNSELLHMLESPESLRSKVDEAVAVLQAHQA
# notes: also called PABPC1 PABC; PABP1 C
# B3: VHS domain of ADP-ribosylation factor-binding protein GGA3 (GGA3 VHS) (domain or fragment)
# chain: ATNPSNRQEDWEYIIGFCDQINKELEGPQIAVRLLAHKIQSPQEWEALQALTVLEACMKNCGRRFHNEVGKFRFLNELIKVVSPKYLGDRVSEKVKTKVIELLYSWTMALPEEAKIKDAYHMLKRQGIVQS
# Target: T4, C terminal domain of polyadenylate-binding protein 1 (human, UniProt P11940 544-623)
# T4 construct: also called PABP1 PABC; PABC
# Details: both partners purified
# T4 sequence (P11940 544-623): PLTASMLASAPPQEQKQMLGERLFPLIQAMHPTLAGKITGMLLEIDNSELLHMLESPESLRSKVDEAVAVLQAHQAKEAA
Binder,binding result,fold weaker affinity than PAIP2(108-123) [fold]
"KSNLNPNAKEFVPGVK (peptide, UniProt Q9BPZ3 108-123, looked up, also called PAIP2 peptide) [PABP-interacting protein 2 peptide PAIP2_(108-123)]",binds,–
SAGLNPAAVPFVPKNQ [P/V/C_(183-198) (HeV) peptide],–,10
TTGLNPTAVPFTLRNL [P/V/C_(183-198) (NiV) peptide],binds,–
HPLLNPSALEFNPSQT [N_(351-366) (HCoV 229E) peptide],binds,–

# Target: T1, N-terminal domain of clathrin
# Details: both partners purified
row,Binder,binding result
1,VDGAADLIDFSVPTDE [mu-NS_(705-720) (MRV1) peptide],binds

# Target: VP0 79-94 (HPeV5) (Human parechovirus 5 (strain CT86-6760) …)
# Details: both partners purified
row,Binder,Kd [µM]
1,B1,75 ± 0.7

# Target: B2
# Details: both partners purified
row,Binder,Kd [µM]
1,SAGLNPAAVPFVPKNQY [P/V/C 183-198 (HeV)],2 ± 0.3
2,TTGLNPTAVPFTLRNLY [P/V/C 183-198 (NiV)],14.6 ± 0.8
3,MSKLSVNAPEFYPSGY [PAIP1 125-140 (Human)],1.58 ± 0.08
4,KSNLNPNAKEFVPGVKY [PAIP2 108-123 (Human)],0.16 ± 0.2

# Target: N 2-17 (BeV) (Berne virus (BEV))
# Details: both partners purified
row,Binder,Kd [µM]
1,B2,2.7 ± 0.1

# Target: T2, GAE domain of ADP-ribosylation …
# Details: both partners purified
row,Binder,Kd [µM]
1,TSGNGDFGDWSAFNQA [CLINT1 366-381 (Human)],35 ± 3
2,SSLADDFGEFSLFGEY [SYNRG 664-679 (Human)],11.2 ± 0.3
3,{FITC}-DESDFGPLVGAD [FITC - RABEP1 435-446 (Human)],1.9 ± 0.1
4,SSPERGWSDYTSGANN [P/V/C 130-145 (NiV)],48 ± 6
5,DPDDGSYGEYQSYSEN [NP 460-485 (ZEBOV)],10.6 ± 0.5
6,NLDESDFGPLVGADSVY [RABEP1 433-448 (Human)],1.7 ± 0.3

# Target: P1 54-69 (SFV) (Semliki forest virus (SFV))
# Details: both partners purified
row,Binder,Kd [µM]
1,B3,82 ± 5

# Target: T3, Mu homology domain (MHD) of the AP-2 …
# Details: both partners purified
row,Binder,Kd [µM]
1,WLPPPEYVPLHEISSK [M 32-47 (WCBV)],12 ± 0.4
2,VNVGEQYQQLREAATE [NP 334-349 (ZEBOV)],9.51 ± 0.07
3,ANEIAAYALLADDLPP [N 124-139 (MuV)],4 ± 0.1
4,EKKRGNYSRLDDRQVR [F 519-534 (HeV)],14 ± 1
5,NLNRVRYSKLDENGVY [Nsp4 75-90 (BAV)],15.9 ± 0.2
6,SIEELEYQRLVTSLSK [L 177-192 (OLVV)],10.9 ± 0.1

# Target: B1
# Details: both partners purified
row,Binder,Kd [µM]
1,NLKLTEPTAPMIHNYM [Nsp4 127-142 (BAV)],64 ± 4
2,VDEEKGLYPNLKLTEPTAPMIHNYM [Nsp4 118-142 (BAV)],73 ± 2
3,MRRVTVPTAPPAYADIGYPM [VP40 1-20 (SEBOV)],12.2 ± 0.3
4,TPEPVVPTAPELRPSTY [MDC1 1280-1295 (Human)],28 ± 0.7
5,{FITC}-GLIPTAPPAD [FITC - gag 453-462 (HIV2)],3.1 ± 0.2
6,QSIAREPSAPSIPTPAY [PDCD6IP 711-727 (Human)],152 ± 1

# Target: B3
# Details: both partners purified
row,Binder,Kd [µM]
1,PDDDDLWLPPPEYIPL [M 26-41 (RABV)],148 ± 8
2,YKLVSFHDDSDEDLLHI [IGF2R 2476-2491 (Human)],4.7 ± 0.2
3,{FITC}-DDSDEDLLHI [FITC - IGF2R 2482-2491 (Human)],4.2 ± 0.4
4,YQLGEESEERDDHLLPM [M6PR 262-277 (Human)],21 ± 1
